Reference: patent US20110045534A1
“And” between values parts separate entries of the source, which are not always exact repeats. Equal values may be shown once.

Legend:
[1] = biological target: immunizing peptide for SUZ12; experiment: ELISA on coated peptide; supernatant 1x
[2] = biological target: immunizing peptide for ERK2p; experiment: ELISA on coated peptide; supernatant 1x
[3] = biological target: immunizing peptide for MRPL11; experiment: ELISA on coated peptide; supernatant 1x
[4] = biological target: immunizing peptide for SUZ12; experiment: ELISA on coated peptide; supernatant 1/10
[5] = biological target: immunizing peptide for ERK2p; experiment: ELISA on coated peptide; supernatant 1/10
[6] = biological target: immunizing peptide for MRPL11; experiment: ELISA on coated peptide; supernatant 1/10

Row | absorbance (OD 450 nm) [1] | absorbance (OD 450 nm) [2] | absorbance (OD 450 nm) [3] | absorbance (OD 450 nm) [4] | absorbance (OD 450 nm) [5] | absorbance (OD 450 nm) [6] | Binder
1 | 0.0542 OD450 and 0.0585 OD450 | 0.0663 OD450 and 0.0671 OD450 | 0.973 OD450 and 0.998 OD450 | 0.0486 OD450 and 0.0529 OD450 | 0.0621 OD450 and 0.0483 OD450 | 1.14 OD450 and 0.99 OD450 | anti-MRPL11 rabbit IgG expressed from the L-2A-H cassette (antibody) light: QVLTQTPSPVSAAVGNTVTINCQASQSVRDNNYLSWYQQKPGQPPKLLIYRASTLESGVPSRFKGNGSGTQFTLTISDLECDDAATYYCQGGYGGNFFPFGGGTEVVVKGDPVAPTVLIFPPAADQVATGTVTIVCVANKYFPDVTVTWEVDGTTQTTGIENSKTPQNSADCTYNLSSTLTLTSTQYNSHKEYTCKVTQGTTSVVQSFNRGDCEGRGSLLTCGDVEENPG heavy: QSVEESGGRLVKPDETLTITCTVSGIDLNNNAMGWVRQAPGEGLEYIGFIGGSGATYYSTWAKGRFTISKSSTTVDLMITSPTTEDTATYFCARYAGSGSFDFSGPGTLVTVSLGQPKAPSVFPLAPCCGDTPSSTVTLGCLVKGYLPEPVTVTWNSGTLTNGVRTFPSVRQSSGLYSLSSVVSVTSSSQPVTCNVAHPATNTKVDKTVAPSTCSKPTCPPPELLGGPSVFIFPPKPKDTLMISRTPEVTCVVVDVSQDDPEVQFTWYINNEQVRTARPPLREQQFNSTIRVVSTLPIAHQDWLRGKEFKCKVHNKALPAPIEKTISKARGQPLEPKVYTMGPPREELSSRSVSLTCMINGFYPSDISVEWEKNGKAEDNYKTTPAVLDSDGSYFLYSKLSVPTSEWQRGDVFTCSVMHEALHNHYTQKSISRSPGK
2 | 0.0487 OD450 and 0.0489 OD450 | 0.0534 OD450 and 0.0524 OD450 | 1.01 OD450 and 1.06 OD450 | 0.0461 OD450 and 0.0445 OD450 | 0.0478 OD450 and 0.0482 OD450 | 0.972 OD450 and 1.04 OD450 | anti-MRPL11 rabbit IgG expressed from the H-2A-L cassette (antibody) heavy: QSVEESGGRLVKPDETLTITCTVSGIDLNNNAMGWVRQAPGEGLEYIGFIGGSGATYYSTWAKGRFTISKSSTTVDLMITSPTTEDTATYFCARYAGSGSFDFSGPGTLVTVSLGQPKAPSVFPLAPCCGDTPSSTVTLGCLVKGYLPEPVTVTWNSGTLTNGVRTFPSVRQSSGLYSLSSVVSVTSSSQPVTCNVAHPATNTKVDKTVAPSTCSKPTCPPPELLGGPSVFIFPPKPKDTLMISRTPEVTCVVVDVSQDDPEVQFTWYINNEQVRTARPPLREQQFNSTIRVVSTLPIAHQDWLRGKEFKCKVHNKALPAPIEKTISKARGQPLEPKVYTMGPPREELSSRSVSLTCMINGFYPSDISVEWEKNGKAEDNYKTTPAVLDSDGSYFLYSKLSVPTSEWQRGDVFTCSVMHEALHNHYTQKSISRSPGKEGRGSLLTCGDVEENPG light: QVLTQTPSPVSAAVGNTVTINCQASQSVRDNNYLSWYQQKPGQPPKLLIYRASTLESGVPSRFKGNGSGTQFTLTISDLECDDAATYYCQGGYGGNFFPFGGGTEVVVKGDPVAPTVLIFPPAADQVATGTVTIVCVANKYFPDVTVTWEVDGTTQTTGIENSKTPQNSADCTYNLSSTLTLTSTQYNSHKEYTCKVTQGTTSVVQSFNRGDC
3 | 0.0474 OD450 | 0.0575 OD450 | 0.971 OD450 | 0.0485 OD450 | 0.0629 OD450 | 1.01 OD450 | anti-MRPL11 rabbit IgG expressed from two separate vectors (H + L positive control) (antibody) heavy: QSVEESGGRLVKPDETLTITCTVSGIDLNNNAMGWVRQAPGEGLEYIGFIGGSGATYYSTWAKGRFTISKSSTTVDLMITSPTTEDTATYFCARYAGSGSFDFSGPGTLVTVSLGQPKAPSVFPLAPCCGDTPSSTVTLGCLVKGYLPEPVTVTWNSGTLTNGVRTFPSVRQSSGLYSLSSVVSVTSSSQPVTCNVAHPATNTKVDKTVAPSTCSKPTCPPPELLGGPSVFIFPPKPKDTLMISRTPEVTCVVVDVSQDDPEVQFTWYINNEQVRTARPPLREQQFNSTIRVVSTLPIAHQDWLRGKEFKCKVHNKALPAPIEKTISKARGQPLEPKVYTMGPPREELSSRSVSLTCMINGFYPSDISVEWEKNGKAEDNYKTTPAVLDSDGSYFLYSKLSVPTSEWQRGDVFTCSVMHEALHNHYTQKSISRSPGK light: QVLTQTPSPVSAAVGNTVTINCQASQSVRDNNYLSWYQQKPGQPPKLLIYRASTLESGVPSRFKGNGSGTQFTLTISDLECDDAATYYCQGGYGGNFFPFGGGTEVVVKGDPVAPTVLIFPPAADQVATGTVTIVCVANKYFPDVTVTWEVDGTTQTTGIENSKTPQNSADCTYNLSSTLTLTSTQYNSHKEYTCKVTQGTTSVVQSFNRGDC
